Test results taken from patent US20170145086A1 (VISTERRA, published 2017).

T1: HA-GCN4 hAPRIL (amino acid residues 105-250) (human, UniProt O75888 105-250)
T1 sequence: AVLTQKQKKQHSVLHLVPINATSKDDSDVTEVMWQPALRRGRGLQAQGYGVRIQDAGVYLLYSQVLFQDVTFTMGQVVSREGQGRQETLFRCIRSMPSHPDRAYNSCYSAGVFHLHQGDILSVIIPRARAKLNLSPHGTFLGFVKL

T2: HA-GCN4 mAPRIL (amino acid residues 96-241) (mouse, UniProt Q9D777 96-241, Assembles as a homotrimer through the GCN4 zipper; one protomer is given.)
T2 construct: Bought (R&D Systems); also called HA-tagged mouse APRIL (R&D Systems); recombinant mouse APRIL; not shown: N-terminal HA tag and GCN4 isoleucine-zipper trimerisation domain, with any linker, of the bought R&D Systems protein
T2 sequence: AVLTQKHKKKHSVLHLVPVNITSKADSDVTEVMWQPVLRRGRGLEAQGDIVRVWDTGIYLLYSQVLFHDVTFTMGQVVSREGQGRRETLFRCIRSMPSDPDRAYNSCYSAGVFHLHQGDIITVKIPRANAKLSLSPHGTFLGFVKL

T3: human FasL (TNFSF6, Adipogen) (human, UniProt P48023 103-281, limits assumed)
T3 sequence (looked up): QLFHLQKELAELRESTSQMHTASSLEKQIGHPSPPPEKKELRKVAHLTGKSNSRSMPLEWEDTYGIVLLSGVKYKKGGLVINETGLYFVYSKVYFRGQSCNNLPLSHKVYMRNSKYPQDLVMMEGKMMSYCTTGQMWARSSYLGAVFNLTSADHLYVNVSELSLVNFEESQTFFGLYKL

T4: human RANKL (TNFSF11; Adipogen) (human, UniProt O14788 152-317, limits assumed)
T4 sequence (looked up): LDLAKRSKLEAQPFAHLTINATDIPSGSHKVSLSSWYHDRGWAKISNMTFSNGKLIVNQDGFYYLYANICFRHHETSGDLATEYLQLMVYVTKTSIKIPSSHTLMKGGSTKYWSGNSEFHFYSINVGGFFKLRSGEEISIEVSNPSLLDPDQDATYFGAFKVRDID

T5: human Tweak (TNFSF12; Abcam) (human, UniProt O43508 94-249, limits assumed)
T5 sequence (looked up): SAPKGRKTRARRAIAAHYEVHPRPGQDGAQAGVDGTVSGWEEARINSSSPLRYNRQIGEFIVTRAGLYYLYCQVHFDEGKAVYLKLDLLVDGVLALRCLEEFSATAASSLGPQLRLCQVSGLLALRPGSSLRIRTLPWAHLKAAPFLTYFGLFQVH

T6: human APRIL variant V181E (Homo sapiens, UniProt O75888)
T6 construct: one of the variants grouped under m24
T6 sequence (APRIL monomer, looked up): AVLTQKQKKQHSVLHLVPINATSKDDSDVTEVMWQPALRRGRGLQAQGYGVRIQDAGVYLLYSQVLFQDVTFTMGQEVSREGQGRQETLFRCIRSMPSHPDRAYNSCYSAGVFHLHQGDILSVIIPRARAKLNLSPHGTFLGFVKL

T7: pur. muAPRIL (Mus musculus, UniProt Q9D777)
T7 sequence (APRIL monomer, looked up): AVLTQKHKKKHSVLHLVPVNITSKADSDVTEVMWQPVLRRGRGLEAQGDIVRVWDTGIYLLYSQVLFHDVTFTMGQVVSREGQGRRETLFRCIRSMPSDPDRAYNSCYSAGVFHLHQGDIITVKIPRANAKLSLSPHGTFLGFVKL

T8: FLAG-tagged mouse APRIL (WT muAPRIL and muAPRIL Mutants) (Mus musculus, UniProt Q9D777)
T8 sequence (APRIL monomer, looked up): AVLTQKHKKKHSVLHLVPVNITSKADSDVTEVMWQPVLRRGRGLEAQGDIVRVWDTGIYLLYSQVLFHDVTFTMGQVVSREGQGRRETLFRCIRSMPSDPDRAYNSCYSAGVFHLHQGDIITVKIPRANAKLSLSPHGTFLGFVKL


How the values were obtained:
[1] = biological target: T1, HA-GCN4 hAPRIL (amino acid residues …); assay: cell-based or functional assay
[2] = biological target: T1, HA-GCN4 hAPRIL (amino acid residues …); assay: blocking ELISA; blocked: human APRIL binding to BCMA-Fc
Method: Recombinant TACI-Fc or BCMA-Fc was coated on 96 well plates in 0.1 M carbonate-bicarbonate buffer (pH 9.6), overnight at 4° C. Plates were washed three times with 1×PBST (PBS+0.025% Tween 20) followed by blocking with 1% BSA in 1×PBS, 37° C. for 1 hour. All subsequent wash steps were carried out with 1×PBST. To assess antibody blocking, either 15 ng/mL or 50 ng/mL HA-GCN4-huAPRIL was preincubated with varying antibody concentrations ranging from 0.03-30 μg/mL in binding buffer comprised of 1% BSA and 0.025% Tween-20 in 1×PBS. Preincubation was carried out at 30° C. for 1 hour with mixing. Antibody-APRIL premix with 50 ng/mL APRIL or 15 ng/mL APRIL was then added to TACI-Fc coated or BCMA-Fc coated plates, respectively, and incubated for an additional hour at 30° C. HA-tagged APRIL binding to either receptor was quantified using a goat polyclonal anti-HA tag-HRP antibody (Abcam) added at a 1:10000 dilution followed by colorimetric development using 100 μl/well of freshly prepared TMB substrate (KPL) carried out for up to 30 minutes at room temperature before quenching enzymatic reaction by the addition of 1N sulfuric acid. ELISA signal was quantified by absorbance at 450 nm. ELISA data was analyzed by non-linear regression. IC₅₀ values were calculated based on a 4 parameter fit of antibody titration curves. […] Non-blocking antibodies Aprly-1 or Aprly-5 (Enzo Biosciences) were used as negative controls. Mouse specific, blocking antibody aprily-1-1 (Adipogen) was generally used as a positive control in experiments using mouse APRIL (HA-GCN4-mAPRIL).
Assay is based on receptor blocking ELISA using recombinant human APRIL (R&D Systems) and either human TACI-Fc (FIG. 30A) or BCMA-Fc (FIG. 30B).

[3] = biological target: T1, HA-GCN4 hAPRIL (amino acid residues …); assay: blocking ELISA; blocked: human APRIL binding to TACI-Fc
[4] = biological target: T1, HA-GCN4 hAPRIL (amino acid residues …); assay: indirect ELISA on human APRIL; row printed 4504-063, legend paragraph 738 says 4540-063
[5] = biological target: T2, HA-GCN4 mAPRIL (amino acid residues …); assay: indirect ELISA on mouse APRIL; row printed 4504-063, legend paragraph 738 says 4540-063
[6] = biological target: human TNFα (TNFSF2; Adipogen) (human, UniProt P01375 85-233, limits assumed); assay: indirect ELISA, cytokine coated
Method: (§1) Selected anti-APRIL antibodies were evaluated for potential cross-reactivity with other members of the TNFa superfamily (TNFSF) family of cytokines, including: human TNFα (TNFSF2; Adipogen), human […] (TNFSF4, Adipogen), human FasL (TNFSF6, Adipogen), human TRAIL (TNFSF10, Adipogen), human RANKL (TNFSF11; Adipogen), human Tweak (TNFSF12; Abcam), human and mouse BAFF (TNFSF13B, AB Biosciences and Adipogen, respectively), and human LIGHT (TNFSF14, Adipogen). These cytokines share variable degree of sequence as well as higher order structural homologies. Among them, BAFF appears to be the most closely related to APRIL, with 29% identity and 53% amino acid sequence similarity.
(§2) Binding was evaluated by an indirect ELISA protocol using similar methods described for evaluation of APRIL binding; cytokines were immobilized to ELISA plate at 50 ng per well and then exposed to a solution of each of the test antibodies at a fixed concentration of 10 μg/ml Anti-human or anti-mouse Ig-HRP polyclonal antibody conjugates (Jackson Laboratories) were used for detection of antibody binding. The results presented in FIG. 36 indicated eleven of the twelve antibodies tested in this assay to specifically bind APRIL with no measurable cross-reactivity with the other TNFSF members substantially above assay background.

[7] = biological target: T3, human FasL (TNFSF6, Adipogen); assay: indirect ELISA, cytokine coated
Method: as §1, §2

[8] = biological target: human TRAIL (TNFSF10, Adipogen) (human, UniProt P50591 95-281, limits assumed); assay: indirect ELISA, cytokine coated
Method: as §1, §2

[9] = biological target: T4, human RANKL (TNFSF11; Adipogen); assay: indirect ELISA, cytokine coated
Method: as §1, §2

[10] = biological target: T5, human Tweak (TNFSF12; Abcam); assay: indirect ELISA, cytokine coated
Method: as §1, §2

[11] = biological target: human BAFF (TNFSF13B, AB Biosciences) (human, UniProt Q9Y275 134-285, limits assumed); assay: indirect ELISA, cytokine coated
Method: as §1, §2

[12] = biological target: mouse BAFF (TNFSF13B, Adipogen) (mouse, UniProt Q9WU72 127-309, limits assumed); assay: indirect ELISA, cytokine coated
Method: as §1, §2

[13] = biological target: human LIGHT (TNFSF14, Adipogen) (human, UniProt O43557 89-240, limits assumed); assay: indirect ELISA, cytokine coated
Method: as §1, §2

[14] = biological target: T6, human APRIL variant V181E; assay: ELISA on the human APRIL variant V181E [panel V181E]
Method: (§3) Antibody binding to human and mouse variants was assessed by ELISA. […] FLAG-tagged APRIL was captured from cell culture media using anti-FLAG antibody. The results are shown in FIGS. 23A-23B, 24A-24B, and 25A-25B. Differentiated epitope mapping of exemplary anti-APRIL antibodies was performed by site directed mutagenesis. Primary characterization of human APRIL binding site was carried out by site-directed mutagenesis of select amino acid positions within APRIL followed by evaluation of antibody binding to these variants by ELISA.

[15] = biological target: T7, pur. muAPRIL; assay: ELISA, purified APRIL control
Method: as §3

[16] = biological target: T8, FLAG-tagged mouse APRIL (WT muAPRIL and …); assay: ELISA, FLAG-APRIL captured with anti-FLAG antibody
Method: as §3

Chain of human LIGHT (TNFSF14, Adipogen) (O43557 89-240 limits assumed): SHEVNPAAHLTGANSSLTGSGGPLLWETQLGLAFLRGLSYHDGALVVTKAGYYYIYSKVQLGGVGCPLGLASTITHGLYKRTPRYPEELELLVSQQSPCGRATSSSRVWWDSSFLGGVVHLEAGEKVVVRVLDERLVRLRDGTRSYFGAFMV
Chain of human TNFα (TNFSF2; Adipogen) (P01375 85-233 limits assumed): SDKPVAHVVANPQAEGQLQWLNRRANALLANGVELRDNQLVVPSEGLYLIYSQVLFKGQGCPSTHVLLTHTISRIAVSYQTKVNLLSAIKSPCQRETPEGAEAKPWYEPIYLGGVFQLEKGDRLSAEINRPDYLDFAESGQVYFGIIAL
Chain of human BAFF (TNFSF13B, AB Biosciences) (Q9Y275 134-285 limits assumed): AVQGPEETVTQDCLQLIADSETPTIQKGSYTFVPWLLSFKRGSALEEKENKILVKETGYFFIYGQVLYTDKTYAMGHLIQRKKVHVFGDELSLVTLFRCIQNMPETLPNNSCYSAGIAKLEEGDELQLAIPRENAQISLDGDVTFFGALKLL
Chain of human TRAIL (TNFSF10, Adipogen) (P50591 95-281 limits assumed): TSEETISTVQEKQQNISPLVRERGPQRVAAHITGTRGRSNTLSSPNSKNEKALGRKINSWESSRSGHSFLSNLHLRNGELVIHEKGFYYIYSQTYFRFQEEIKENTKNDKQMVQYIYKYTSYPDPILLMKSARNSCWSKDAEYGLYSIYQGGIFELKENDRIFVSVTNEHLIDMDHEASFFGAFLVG
Chain of mouse BAFF (TNFSF13B, Adipogen) (Q9WU72 127-309 limits assumed): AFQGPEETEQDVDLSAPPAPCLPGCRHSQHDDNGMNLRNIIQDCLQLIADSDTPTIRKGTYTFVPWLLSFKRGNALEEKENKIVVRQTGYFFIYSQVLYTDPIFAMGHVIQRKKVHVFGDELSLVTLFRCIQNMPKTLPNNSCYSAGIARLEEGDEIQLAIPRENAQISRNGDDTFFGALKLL

Binder	IC50 (inhibition of APRIL-mediated BCMA NFκB signaling) [1] [pM]	IC50 (inhibition of APRIL-mediated TACI NFκB signaling) [1] [pM]	IC50 [2] [pM]	Relative Activity (normalised to 2419) [2]	IC50 [3] [pM]	Relative Activity (normalised to 2419) [3]	EC50 [4] [pM]	EC50 [5] [pM]	binding result [6]	binding result [7]	binding result [8]	binding result [9]	binding result [10]	binding result [11]	binding result [12]	binding result [13]	binding result [14]	binding result [15]	binding result [16]
monoclonal antibody 4540-063 (antibody, IgG1, V domains shown) VH: QVQLVQSGAELKKPGASVKVSCKASGYTFADYYMNWVRQAPGQGLEWMGWIFPGSGSTYYNQKFQGRVTMTVDKSSSTAYMELSRLRSDDTAVYYCARGDSGRAMDYWGQGTLVTVSS VL: DIQMTQSPSSLSASVGDRVTITCQASQDINKYLAWYQHKPGKAPKLLIHYTSTLETGVPSRFSGSGSGTDFTFTISSLQPEDIATYYCLQYDNLLTFGGGTKVEIK	~1040	~7190	1920	8.11	670	2.43	2.06	1.56											
monoclonal antibody 2419 (antibody, V domains shown) VH: QVQLQQSGAELVKPGASVRLSCEASGYTFTDYTIHWVKQRSGQGLEWIGWIYPLRGSINYNEKFKDKATLTADKSSSTVYLELGRLTSKDSAVYFCARHGAYYSNAFDYWGQGTTLTVSS VL: NIVMTQSPASLAVSLGQRATISCRASESVDNDGIRFMHWYQQKPGQPPKLLIYRASNLESGIPARFSGSGSRTDFTLTINPVETDDVATYYCQQSNKDPYTFGGGTKLELK									no binding (tested: 10 µg/ml (p-1128))	no binding (tested: 10 µg/ml (p-1128))	no binding (tested: 10 µg/ml (p-1128))	no binding (tested: 10 µg/ml (p-1128))	no binding (tested: 10 µg/ml (p-1128))	no binding (tested: 10 µg/ml (p-1128))	no binding (tested: 10 µg/ml (p-1128))	no binding (tested: 10 µg/ml (p-1128))	binds		
monoclonal antibody 4035 (antibody, V domains shown, mouse-derived) VH: QVQLKESGPGLVAPSQSLSITCTVSGFSLTIYDVHWVRQSPGKGLEWLGVIWSDGSTDYNAAFISRLSISKDNSKSQVFFKMNSLQADDTAIYYCARNWVDQAWFAYWGQGTLVTVSA VL: DIQMTQSPASLSASVGETITITCRASKNIYSYLAWYQQKQGKSPQLLVYNAKTLPEGVPSRFSGSGSGTQFSLKINSLQPEDFGSYYCQHHYGTPLTFGAGTKLELK									no binding (tested: 10 µg/ml (p-1128))	no binding (tested: 10 µg/ml (p-1128))	no binding (tested: 10 µg/ml (p-1128))	no binding (tested: 10 µg/ml (p-1128))	no binding (tested: 10 µg/ml (p-1128))	no binding (tested: 10 µg/ml (p-1128))	no binding (tested: 10 µg/ml (p-1128))	no binding (tested: 10 µg/ml (p-1128))		no binding	no binding
